Laboratory results taken from patent US11833164B2, “Methods of treating Fabry disease in patients having a mutation in the GLA gene” (Amicus Therapeutics, Inc., priority 2019, dated 2023).

System: mutant form of α-Gal A expressed in HEK-293 cells
Experiment: HEK assay (GLP HEK / Migalastat Amenability Assay): α-Gal A activity in lysates of transiently transfected HEK-293 cells incubated with or without 10 μM migalastat
Assay type: cell-based, human
Conditions: for Absolute increase (% WT): 10 μM migalastat versus baseline; for Relative increase: 10 μM migalastat α-Gal A activity relative to baseline; for 10 μM migalastat α-Gal A activity (% WT): 5 days; for 10 μM migalastat α-Gal A activity (% WT) / Baseline α-Gal A activity (% WT): percentage of baseline wild-type α-Gal A activity; for 10 μM migalastat α-Gal A activity (% WT) / Baseline α-Gal A activity (% WT) / Baseline α-Gal A activity / 10 μM migalastat α-Gal A activity: mean ± SEM; for Baseline α-Gal A activity (% WT): absence of migalastat; for Baseline α-Gal A activity / 10 μM migalastat α-Gal A activity: lysates of HEK-293 cells transfected with the mutant form; for Baseline α-Gal A activity: incubated 5 days in the absence of migalastat; for 10 μM migalastat α-Gal A activity: incubated 5 days with 10 μM migalastat
Outline: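 HEK-293 cells transiently transfected with mutant α-Gal A and incubated with or without 10 μM migalastat; lysate activity given as nmol free 4-MU released per mg protein per hour. Values are mean±SEM.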

B1: V137L (protein)
chain: MQLRNPELHLGCALALRFLALVSWDIPGARALDNGLARTPTMGWLHWERFMCNLDCQEEPDSCISEKLFMEMAELMVSEGWKDAGYEYLCIDDCWMAPQRDSEGRLQADPQRFPHGIRQLANYVHSKGLKLGIYADLGNKTCAGFPGSFGYYDIDAQTFADWGVDLLKFDGCYCDSLENLADGYKHMSLALNRTGRSIVYSCEWPLYMWPFQKPNYTEIRQYCNHWRNFADIDDSWKSIKSILDWTSFNQERIVDVAGPGGWNDPDMLVIGNFGLSWNQQVTQMALWAIMAAPLFMSNDLRHISPQAKALLQDKDVIAINQDPLGKQGYQLRQGDNFEVWERPLSGLAWAVAMINRQEIGGPRSYTIAVASLGKGVACNPACFITQLLPVKRKLGFYEWTSRLRSHINPTGTVLLQLENTMQMSLKDLL
With B1 the “Absolute increase (% WT)” value was 11.7 % WT, the Relative increase was 1.3 and the “10 μM migalastat α-Gal A activity (% WT)” value was 53.3 ± 3.7 % WT. The “Baseline α-Gal A activity (% WT)” value was 41.6 ± 2.1 % WT, the “Baseline α-Gal A activity” value was 15359 ± 656 nmol/mg/h and the “10 μM migalastat α-Gal A activity” value was 19794 ± 1475 nmol/mg/h.

B2: N139Y (protein)
chain: MQLRNPELHLGCALALRFLALVSWDIPGARALDNGLARTPTMGWLHWERFMCNLDCQEEPDSCISEKLFMEMAELMVSEGWKDAGYEYLCIDDCWMAPQRDSEGRLQADPQRFPHGIRQLANYVHSKGLKLGIYADVGYKTCAGFPGSFGYYDIDAQTFADWGVDLLKFDGCYCDSLENLADGYKHMSLALNRTGRSIVYSCEWPLYMWPFQKPNYTEIRQYCNHWRNFADIDDSWKSIKSILDWTSFNQERIVDVAGPGGWNDPDMLVIGNFGLSWNQQVTQMALWAIMAAPLFMSNDLRHISPQAKALLQDKDVIAINQDPLGKQGYQLRQGDNFEVWERPLSGLAWAVAMINRQEIGGPRSYTIAVASLGKGVACNPACFITQLLPVKRKLGFYEWTSRLRSHINPTGTVLLQLENTMQMSLKDLL
B2 was tested, and the “Absolute increase (% WT)” value was 11.7 % WT, the Relative increase was 1.2 and the “10 μM migalastat α-Gal A activity (% WT)” value was 64 ± 5.2 % WT. For the same molecule, the “Baseline α-Gal A activity (% WT)” value was 52.3 ± 3.8 % WT, the “Baseline α-Gal A activity” value was 19998 ± 1682 nmol/mg/h and the “10 μM migalastat α-Gal A activity” value was 24303 ± 2079 nmol/mg/h.

B3: N139H (protein)
chain: MQLRNPELHLGCALALRFLALVSWDIPGARALDNGLARTPTMGWLHWERFMCNLDCQEEPDSCISEKLFMEMAELMVSEGWKDAGYEYLCIDDCWMAPQRDSEGRLQADPQRFPHGIRQLANYVHSKGLKLGIYADVGHKTCAGFPGSFGYYDIDAQTFADWGVDLLKFDGCYCDSLENLADGYKHMSLALNRTGRSIVYSCEWPLYMWPFQKPNYTEIRQYCNHWRNFADIDDSWKSIKSILDWTSFNQERIVDVAGPGGWNDPDMLVIGNFGLSWNQQVTQMALWAIMAAPLFMSNDLRHISPQAKALLQDKDVIAINQDPLGKQGYQLRQGDNFEVWERPLSGLAWAVAMINRQEIGGPRSYTIAVASLGKGVACNPACFITQLLPVKRKLGFYEWTSRLRSHINPTGTVLLQLENTMQMSLKDLL
With B3 the “Absolute increase (% WT)” value was 28.1 % WT, the Relative increase was 1.4 and the “10 μM migalastat α-Gal A activity (% WT)” value was 101.2 ± 7.1 % WT. For the same molecule, the “Baseline α-Gal A activity (% WT)” value was 73.1 ± 5.4 % WT, the “Baseline α-Gal A activity” value was 29115 ± 2336 nmol/mg/h and the “10 μM migalastat α-Gal A activity” value was 40678 ± 3158 nmol/mg/h.

B4: N139K (protein)
chain: MQLRNPELHLGCALALRFLALVSWDIPGARALDNGLARTPTMGWLHWERFMCNLDCQEEPDSCISEKLFMEMAELMVSEGWKDAGYEYLCIDDCWMAPQRDSEGRLQADPQRFPHGIRQLANYVHSKGLKLGIYADVGKKTCAGFPGSFGYYDIDAQTFADWGVDLLKFDGCYCDSLENLADGYKHMSLALNRTGRSIVYSCEWPLYMWPFQKPNYTEIRQYCNHWRNFADIDDSWKSIKSILDWTSFNQERIVDVAGPGGWNDPDMLVIGNFGLSWNQQVTQMALWAIMAAPLFMSNDLRHISPQAKALLQDKDVIAINQDPLGKQGYQLRQGDNFEVWERPLSGLAWAVAMINRQEIGGPRSYTIAVASLGKGVACNPACFITQLLPVKRKLGFYEWTSRLRSHINPTGTVLLQLENTMQMSLKDLL
B4 was tested, and the “Absolute increase (% WT)” value was 33.8 % WT, the Relative increase was 1.3 and the “10 μM migalastat α-Gal A activity (% WT)” value was 127.4 ± 8.8 % WT. For the same molecule, the “Baseline α-Gal A activity (% WT)” value was 93.6 ± 5.8 % WT, the “Baseline α-Gal A activity” value was 33797 ± 2244 nmol/mg/h and the “10 μM migalastat α-Gal A activity” value was 45090 ± 2667 nmol/mg/h.

B5: K140I (protein)
chain: MQLRNPELHLGCALALRFLALVSWDIPGARALDNGLARTPTMGWLHWERFMCNLDCQEEPDSCISEKLFMEMAELMVSEGWKDAGYEYLCIDDCWMAPQRDSEGRLQADPQRFPHGIRQLANYVHSKGLKLGIYADVGNITCAGFPGSFGYYDIDAQTFADWGVDLLKFDGCYCDSLENLADGYKHMSLALNRTGRSIVYSCEWPLYMWPFQKPNYTEIRQYCNHWRNFADIDDSWKSIKSILDWTSFNQERIVDVAGPGGWNDPDMLVIGNFGLSWNQQVTQMALWAIMAAPLFMSNDLRHISPQAKALLQDKDVIAINQDPLGKQGYQLRQGDNFEVWERPLSGLAWAVAMINRQEIGGPRSYTIAVASLGKGVACNPACFITQLLPVKRKLGFYEWTSRLRSHINPTGTVLLQLENTMQMSLKDLL
B5 was tested, and the “Absolute increase (% WT)” value was 49.4 % WT, the Relative increase was 2.1 and the “10 μM migalastat α-Gal A activity (% WT)” value was 92.1 ± 7.1 % WT. For the same molecule, the “Baseline α-Gal A activity (% WT)” value was 42.7 ± 3.3 % WT, the “Baseline α-Gal A activity” value was 15415 ± 1294 nmol/mg/h and the “10 μM migalastat α-Gal A activity” value was 32440 ± 2092 nmol/mg/h.

B6: K140E (protein)
chain: MQLRNPELHLGCALALRFLALVSWDIPGARALDNGLARTPTMGWLHWERFMCNLDCQEEPDSCISEKLFMEMAELMVSEGWKDAGYEYLCIDDCWMAPQRDSEGRLQADPQRFPHGIRQLANYVHSKGLKLGIYADVGNETCAGFPGSFGYYDIDAQTFADWGVDLLKFDGCYCDSLENLADGYKHMSLALNRTGRSIVYSCEWPLYMWPFQKPNYTEIRQYCNHWRNFADIDDSWKSIKSILDWTSFNQERIVDVAGPGGWNDPDMLVIGNFGLSWNQQVTQMALWAIMAAPLFMSNDLRHISPQAKALLQDKDVIAINQDPLGKQGYQLRQGDNFEVWERPLSGLAWAVAMINRQEIGGPRSYTIAVASLGKGVACNPACFITQLLPVKRKLGFYEWTSRLRSHINPTGTVLLQLENTMQMSLKDLL
For B6, the “Absolute increase (% WT)” value was 59.5 % WT, the Relative increase was 1.8 and the “10 μM migalastat α-Gal A activity (% WT)” value was 132.1 ± 9 % WT. For the same molecule, the “Baseline α-Gal A activity (% WT)” value was 72.6 ± 5.8 % WT, the “Baseline α-Gal A activity” value was 26053 ± 1925 nmol/mg/h and the “10 μM migalastat α-Gal A activity” value was 46670 ± 2685 nmol/mg/h.

B7: G138A (protein)
chain: MQLRNPELHLGCALALRFLALVSWDIPGARALDNGLARTPTMGWLHWERFMCNLDCQEEPDSCISEKLFMEMAELMVSEGWKDAGYEYLCIDDCWMAPQRDSEGRLQADPQRFPHGIRQLANYVHSKGLKLGIYADVANKTCAGFPGSFGYYDIDAQTFADWGVDLLKFDGCYCDSLENLADGYKHMSLALNRTGRSIVYSCEWPLYMWPFQKPNYTEIRQYCNHWRNFADIDDSWKSIKSILDWTSFNQERIVDVAGPGGWNDPDMLVIGNFGLSWNQQVTQMALWAIMAAPLFMSNDLRHISPQAKALLQDKDVIAINQDPLGKQGYQLRQGDNFEVWERPLSGLAWAVAMINRQEIGGPRSYTIAVASLGKGVACNPACFITQLLPVKRKLGFYEWTSRLRSHINPTGTVLLQLENTMQMSLKDLL
In the case of B7, the “Absolute increase (% WT)” value is reported as 20.1 % WT, the Relative increase is reported as 2.3 and the “10 μM migalastat α-Gal A activity (% WT)” value is reported as 34.5 ± 1.5 % WT. For the same molecule, the “Baseline α-Gal A activity (% WT)” value was 14.4 ± 1.1 % WT, the “Baseline α-Gal A activity” value was 4768 ± 480 nmol/mg/h and the “10 μM migalastat α-Gal A activity” value was 11112 ± 732 nmol/mg/h.

B8: N139I (protein)
chain: MQLRNPELHLGCALALRFLALVSWDIPGARALDNGLARTPTMGWLHWERFMCNLDCQEEPDSCISEKLFMEMAELMVSEGWKDAGYEYLCIDDCWMAPQRDSEGRLQADPQRFPHGIRQLANYVHSKGLKLGIYADVGIKTCAGFPGSFGYYDIDAQTFADWGVDLLKFDGCYCDSLENLADGYKHMSLALNRTGRSIVYSCEWPLYMWPFQKPNYTEIRQYCNHWRNFADIDDSWKSIKSILDWTSFNQERIVDVAGPGGWNDPDMLVIGNFGLSWNQQVTQMALWAIMAAPLFMSNDLRHISPQAKALLQDKDVIAINQDPLGKQGYQLRQGDNFEVWERPLSGLAWAVAMINRQEIGGPRSYTIAVASLGKGVACNPACFITQLLPVKRKLGFYEWTSRLRSHINPTGTVLLQLENTMQMSLKDLL
In the case of B8, the “Absolute increase (% WT)” value is reported as 26.4 % WT, the Relative increase is reported as 1.5 and the “10 μM migalastat α-Gal A activity (% WT)” value is reported as 78.3 ± 4.5 % WT. For the same molecule, the “Baseline α-Gal A activity (% WT)” value was 51.8 ± 5.1 % WT, the “Baseline α-Gal A activity” value was 17180 ± 1455 nmol/mg/h and the “10 μM migalastat α-Gal A activity” value was 26326 ± 1627 nmol/mg/h.
